The values that follow come from patent US20220162583.

What all share (assay): cell_activity
The test system of data set [1] is nd4 mito-nickase (1) left TALE-FokI. To be noted: zebrafish embryos; both nd4 nickase pairs co-injected.
For data set [2], the system named is nd4 mito-nickase (2) left TALE-FokI. The note with it: zebrafish embryos; both nd4 nickase pairs co-injected.
The subject of data set [3] is nd5 mito-nickase right TALE-FokI. The note with it: nearly 30%; with atp8 nickase.
Data set [4] relates to nd4 mitoTALE nuclease left. To be noted: with nd5 and atp8 nickases; deletions also with nuclease alone.
In data set [5] the test system is nd4 mito-nickase (2) right TALE-FokI. The note with it: zebrafish embryos; both nd4 nickase pairs co-injected.
Data set [6] deals with nd5 mito-nickase left TALE-FokI. The note with it: nearly 30%; with atp8 nickase.
Data set [7] has as its system atp8 mito-nickase left TALE-FokI. To be noted: nearly 30%; with nd5 nickase.
Data set [8] has as its system nd4 mitoTALE nuclease right. The note with it: with nd5 and atp8 nickases; deletions also with nuclease alone.
Data set [9] relates to atp8 mito-nickase right TALE-FokI. To be noted: nearly 30%; with nd5 nickase.
Data set [10] has as its system nd4 mito-nickase (1) right TALE-FokI. To be noted: zebrafish embryos; both nd4 nickase pairs co-injected.

“AAGTTCTGGTTTTAA (double strand) [nd4 nickase (1) left site]” registered an activity (% embryos with deletion) in [1] of 50.
“ACGAGTTAGAAGCAT (double strand) [nd4 nickase (2) left site]” had an activity (% embryos with deletion) in [2] of 50.
The sequence “AGGGCTAATGATAGT (double strand) [nd5 nickase right site]” yielded an activity (% embryos with deletion) in data set [3] of 30.
As to “CGGGTAATAATGATT (double strand) [nd4 nuclease left site]”, in data set [4], the activity (% embryos with deletion) was above 90.
In data set [5], “GACTAAAATGAACCT (double strand) [nd4 nickase (2) right site]” came in with an activity (% embryos with deletion) of 50.
“GCTAGATGTGGTTGG (double strand) [nd5 nickase left site]” had an activity (% embryos with deletion) in data set [6] of 30.
In turn, “TAGGTTGAATGTGAT (double strand) [atp8 nickase left site]” had an activity (% embryos with deletion) in data set [7] of 30.
As for “TATATTCGAAGCTAC (double strand) [nd4 nuclease right site]”, the activity (% embryos with deletion) in [8] is above 90.
For “TCCTTACTATTATTC (double strand) [atp8 nickase right site]”, in data set [9], the activity (% embryos with deletion) is 30.
Consider “TTACACCTAATTCCT (double strand) [nd4 nickase (1) right site]”, for which the activity (% embryos with deletion) in [10] turned out to be 50.
